Results: US20120202233

Target: myc-CRAF (wild type)

B1: FLAG-KSR (wild-type KSR1) (protein)
chain: MDRAALRAAAMGEKKEGGGGGAAADGGAGAAVSRALQQCGQLQKLIDISIGSLRGLRTKCSVSNDLTQQEIRTLEAKLVKYICKQQQSKLSVTPSDRTAELNSYPRFSDWLYIFNVRPEVVQEIPQELTLDALLEMDEAKAKEMLRRWGASTEECSRLQQALTCLRKVTGLGGEHKMDSGWSSTDARDSSLGPPMDMLSSLGRAGASTQGPRSISVSALPASDSPVPGLSEGLSDSCIPLHTSGRLTPRALHSFITPPTTPQLRRHAKLKPPRTPPPPSRKVFQLLPSFPTLTRSKSHESQLGNRIDDVTPMKFELPHGSPQLVRRDIGLSVTHRFSTKSWLSQVCNVCQKSMIFGVKCKHCRLKCHNKCTKEAPACRITFLPLARLRRTESVPSDINNPVDRAAEPHFGTLPKALTKKEHPPAMNLDSSSNPSSTTSSTPSSPAPFLTSSNPSSATTPPNPSPGQRDSRFSFPDISACSQAAPLSSTADSTRLDDQPKTDVLGVHEAEAEEPEAGKSEAEDDEEDEVDDLPSSRRPWRGPISRKASQTSVYLQEWDIPFEQVELGEPIGQGRWGRVHRGRWHGEVAIRLLEMDGHNQDHLKLFKKEVMNYRQTRHENVVLFMGACMNPPHLAIITSFCKGRTLHSFVRDPKTSLDINKTRQIAQEIIKGMGYLHAKGIVHKDLKSKNVFYDNGKVVITDFGLFGISGVVREERRENQLKLSHDWLCYLAPEIVREMIPGRDEDQLPFSKAADVYAFGTVWYELQARDWPFKHQPAEALIWQIGSGEGVRRVLASVSLGKEVGEILSACWAFDLQERPSFSLLMDMLERLPKLNRRLSHPGHFWKSADINSSKVMPRFERFGLGTLESGNPKM
  in vitro kinase activity towards purified MEK in KSR immunoprecipitates, phospho-MEK antibody (FIG. 1G): Treatment of cells with PLX4720 induced kinase activity towards MEK in the KSR immunoprecipitates and only occurred when KSR and CRAF were co-expressed together
